Legend:
[1] = target: Alexa488-labeled WAVE1 WCA (human); test: FRET or BRET; 7.5 nM Alexa488-labeled WAVE1 variant titrated with LatB-stabilized Atto540Q-actin; donor quenching; room temperature; 20 mM HEPES pH 7.0, 100 mM KCl, 1.5 mM MgCl2, 1 mM EGTA, 1 mM ATP; single site binding curve
[2] = target: Alexa488-labeled WAVE1 PWCA (FRET donor construct) (human) (UniProt Q92558); test: as above
[3] = target: Alexa488-labeled WAVE1 PWCA (FRET donor construct) (human) (UniProt Q92558); test: FRET or BRET; competition: 7.5 nM Alexa488-WAVE1 variant premixed with 175 nM LatB-stabilized Atto540Q-actin, profilin titrated; room temperature; 20 mM HEPES pH 7.0, 100 mM KCl
WAVE1 PRD[A] (human) = WAVE1 PRD[A] (human) (UniProt Q92558); test: AUC; sedimentation equilibrium; dye-labeled WAVE1 PRD variant with an excess of profilin (for PRD[B] 91.2, 44.8 and 21.7 μM); three speeds; 20°C; 25 mM HEPES pH 7.0, 50 mM KCl, 1 mM MgCl2, 1 mM EGTA, 0.5 mM TCEP; two-site independent model with one site fixed to the non-specific affinity
WAVE1 PRD[D] (human) = WAVE1 PRD[D] (human) (UniProt Q92558); test: as above
WAVE1 PRD[B] (human) = WAVE1 PRD[B] (human) (UniProt Q92558); test: as above
WAVE1 PRD[C] (human) = WAVE1 PRD[C] (human) (UniProt Q92558); test: as above
WAVE1 PRD[F] (human) = WAVE1 PRD[F] (human) (UniProt Q92558); test: as above
WAVE1 PRD[E] (human) = WAVE1 PRD[E] (human) (UniProt Q92558); test: as above

Substance | Kd [1] [µM] | Kd [2] [µM] | fraction of WH2 domains that contact actin at high profilin [3] [%] | residual fluorescence quenching at the highest profilin concentrations [3] [%] | Kd (WAVE1 PRD[A] (human)) [µM] | Kd (WAVE1 PRD[D] (human)) [µM] | Kd (WAVE1 PRD[B] (human)) [µM] | Kd (WAVE1 PRD[C] (human)) [µM] | Kd (WAVE1 PRD[F] (human)) [µM] | Kd (WAVE1 PRD[E] (human)) [µM]
Atto540Q-labeled actin monomers (Acanthamoeba castellanii), Latrunculin B-stabilized (natural protein) | 0.061 | 0.021 | > 35 | > 30 |  |  |  |  |  | 
Human profilin 1 (from UniProt P07737 1-140) (natural protein) |  |  |  |  | > 10 | > 10 | 2 | > 10 | 4 | > 10

— article PMC5753033
